Reference: US20160046689A1 (NOVELOGICS BIOTECHNOLOGY, published 2016)
Blank lines part the entries; values can stand above or below the binder they belong to.

Molecular target: T1, recombinant extracellular alpha-3 domain of MICA (allele 001), Baculovirus-expressed, C-terminal His tag (human, UniProt Q29983 205-297)
T1 construct: Expressed in Sf9 cells and purified by Ni2+ chelation with 8M urea, then dialysed; also called alpha-3 domain MICA protein; target MICA alpha-3 domain recombinant protein
T1 sequence: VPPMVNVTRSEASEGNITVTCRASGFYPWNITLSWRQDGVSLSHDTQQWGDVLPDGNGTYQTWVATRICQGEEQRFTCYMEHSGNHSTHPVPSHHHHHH
Experiment: BLI (Octet RED96), antibody captured by anti-mouse IgG, antigen in solution, pH 7.4, 1:1 model
Protocol: Biomolecular interactions between antigen and antibody were directly measured by Bio-Layer Interferometry (BLI) using a Pall ForteBio Octet RED96 machine (Pall ForteBio, CA, USA). Real-time kinetic analyses were performed on the test MICA monoclonal antibodies 1F5 and 8C7, as well as two control antibodies, one of which could bind the alpha-3 MICA subdomain antigen (positive control) and one of which could not (negative control, binds other MICA subdomains), as previously determined by ELISA. The Octet RED96 apparatus operates under the principle of Bio-Layer Interferometry, a label-free technique that measures molecular interactions and complex formation. A key component of the technique is the optical biosensor whose tip is immersed in the fluids of the test well and then used to assay interference patterns between waves of light. Here, the ligand (monoclonal antibody) is localized to the surface of the biosensor through capture by previously bound anti-mouse IgG, while the analyte biomolecule (antigen) is kept in solution. Binding responses between ligand and analyte were measured and reported in real-time. Both association and dissociation kinetics were monitored and KD values were calculated. This model assumed a 1:1 interaction of ligand to analyte.

Kd: ~6.81 nM
B1: antibody 8C7 (antibody, IgG1, V domains shown)
VH: QIQLVQSGPELKKPGETVKISCKASGYTFTNYGMNWVKQAPGKGLKWMGWINTNTGEPTYAEEFKGRFAFSLETSASTAYLQINNLKNEDTATYFCARSGGSSPFAYWGQGTLVTVSA
VL: DIVMTQAAPSVPVTPGESVSISCRSSKSLLQSNGNTFLYWFMQRPGQSPQLLIYRMSNLASGVPDRFSGSGSGTAFTLRISRVEAEDVGVYYCMQHLEYPFTFGGGTKLEIKR
notes: Mouse hybridoma monoclonal, IgG1 heavy chain and kappa light chain; Tested as hybridoma supernatant in ELISA and FACS; also called antibody from clone 8C7; hybridoma clone 8C7

Kd: ~0.783 nM
B2: antibody 1F5 (antibody, IgG1, V domains shown)
VH: QIQLVQSGPELKKPGETVKISCKASGYTFTDYSVHWVKQAPGKGLKWMGWINTETGEPTYADDFKGRFAFSLETSASTAYLQINNLKNEDTATYFCARAGGNAFAYWGQGTLVTVSA
VL: DIVLTQSPASLAVSLGQRATISCRASKSVSTSGYSYMHWYQQKPGQPPKLLIYRASNLESGVPARFSGSGSGTDFTLNIHPVEEEDAATYYCQHSRELPLTFGAGTKLELKR
notes: Mouse hybridoma monoclonal, IgG1 heavy chain and kappa light chain; Tested as hybridoma supernatant in ELISA and FACS; also called IF5; antibody from clone 1F5
